Test results reported in patent publication US9611303B2, “Modified biotin-binding protein” (Japan Tobacco Inc., priority 2009, dated 2017).
Positions count from the first letter of the chain named. Names may count otherwise. “And” between values parts separate entries of the source, which are not always exact repeats. Equal entries are not always repeated. “Also recorded” adds a separate entry of the source.

B1: TM2 W108K: TM2 in which the 108th tryptophan was replaced with lysine (protein)
chain: MSDVQSSLTGTWYNELNSKMELTANKDGTLTGKYLSKVGDVYVPYPLSGRYNLQPPAGQGVALGWAVSWENSKIHSATTWSGQFFSESSPVILTQWLLSSSTARGDVKESTLVGNDSFTKTAPTEQQIAHAQLHCRAPRLK
B2: TM2 L97T-V113R: TM2 with 97th leucine replaced with threonine and 113th valine with arginine (protein)
chain: B1 chain with L97T, K108W, V113R
B3: TM2 A66R: TM2 in which the 66th alanine was replaced with arginine (protein)
chain: B1 chain with A66R, K108W
B4: TM2 N14A: TM2 in which the 14th asparagine was replaced with alanine (protein)
chain: B1 chain with N14A, K108W
B5: TM2 W69K: TM2 in which the 69th tryptophan was replaced with lysine (protein)
chain: B1 chain with W69K, K108W
B6: TM2 A66R-L97T: TM2 double mutant A66R and L97T; not in the list of 30 forms, vector named in b302 (protein)
chain: B1 chain with A66R, L97T, K108W
B7: TM2 A66R-V113R: TM2 with 66th alanine and 113th valine replaced with arginine (protein)
chain: B1 chain with A66R, K108W, V113R
B8: TM2 W108E: TM2 in which the 108th tryptophan was replaced with glutamic acid (protein)
chain: B1 chain with K108E
B9: TM2 V113R: TM2 in which the 113th valine was replaced with arginine (protein)
chain: B1 chain with K108W, V113R
B10: TM2 A66R-L97T-V113R: TM2 with A66R, L97T and V113R replacements (protein)
chain: B1 chain with A66R, L97T, K108W, V113R
B11: TM2 L97T: TM2 in which the 97th leucine was replaced with threonine (protein)
chain: B1 chain with L97T, K108W

Assays:
[1] = Purification of LATM2 with 2-iminobiotin-agarose; format: binding; conditions: for Recovery rate (%): Iminobiotin-agarose, binding at pH 12, elution with 50 mM NH4OAC (pH 4); for recovery rates compared with WT: purification with 2-iminobiotin-agarose; for Note (Iminobiotin-agarose): FT = column flow-through fraction
Method: LATM2 was purified through a column charged with 2-iminobiotin-agarose (manufactured by Sigma-Aldrich Corp.) in accordance with the method by Hofmann, et al., (1980). IPTG was added to 25 mL of a culture solution of E. coli transformed with each LATM2 in a final concentration of 1 mM to induce expression. The E. coli cells were collected by centrifugation, suspended in 1.5 mL of 50 mM CAPS (pH 12) containing 50 mM NaCl, and then sonicated. To the supernatant of the disrupted cells, 500 μL of 2-iminobiotin-agarose was added, which was then packed in a column. The column was sufficiently washed with 50 mM CAPS (pH 12) containing 500 mM NaCl, and elution was then performed with 50 mM NH4OAC (pH 4).
(§1) The recovery rate in Table 2 was calculated by dividing the amount of LATM2 protein after purification by the amount of LATM2 protein before purification and was expressed by percent by multiplying the quotient by 100. The degree of purification was the ratio of the amount of LATM2 protein to the total amount of proteins in the purified fraction and was expressed by percent by multiplying the ratio by 100. The recovery rates and the degrees of purification in biotin-agarose were the results after binding at pH 7 and elution with an excess amount of biotin.

[2] = Purification of LATM2 with biotin-agarose; format: binding; conditions: for Recover rate (%) / Note (Biotin-agarose): binding at pH 7, recovery with 10 mM biotin; for Note (Biotin-agarose): FT = flow-through
Method: Purification with biotin-agarose (manufactured by Sigma-Aldrich Corp.) was performed by the following procedure. After induced expression of 25 mL of a culture solution of E. coli for each LATM2, the E. coli cells were suspended in 1.5 mL of a 100 mM potassium phosphate buffer (pH 7.0), and then sonicated. To the supernatant of the disrupted cells. 400 μL of biotin-agarose was added, which was followed by upside-down mixing for 1 hr. […]
In TM2 S36A-T78A-D116A, the E. coli cells were suspended in 1.5 mL of 50 mM CAPS (pH 12) containing 50 mM NaCl, and then sonicated. To the disrupted cells, 400 μL of biotin-agarose was added, which was followed by upside-down mixing for 1 hr. The column was sufficiently washed with 50 mM CAPS (pH 12) containing 500 mM NaCl, and elution was then performed with 1 mL of PBS (pH 7.4) containing 10 mM biotin.
In TM2 S36A-D116A, the E. coli cells were suspended in 1.5 mL of a 100 mM potassium phosphate buffer (pH 4.0), and then sonicated. To the pupernatant of the disrupted cells, 400 μL of biotin-agarose was added. Washing was performed with a 100 mM potassium phosphate buffer (pH 4) containing 500 mM NaCl, and elution was performed with 1 mL of PBS (pH 7) containing 10 mM biotin. Biotin binding to LATM2 that has been eluted with an excess amount of biotin was removed by dialysis with a 20 mM potassium phosphate buffer overnight.
as §1

[3] = Subunit association by FPLC on Sephacryl S-100HR; format: physicochemical; conditions: for Structure (identified by FPLC): Sephacryl S-100HR, 50 mM potassium phosphate, 500 mM NaCl; for Sephacryl (mL), elution peak position: tetramer 44 to 47 mL, dimer 51 to 54 mL, monomer 63 to 66 mL; for share present as monomer: of the total
Method: In order to analyze the subunit association conditions of LATM2, the molecular weight of each LATM2s was measured by FPLC. Sephacryl S-100HR (manufactured by GE Healthcare) was used as a column, a Gel Filtration Calibration Kit LMW (manufactured by GE Healthcare) was used as molecular weight markers, and 50 mM potassium phosphate containing 500 mM NaCl was used as a buffer.
The positions of the peaks of eluted tetramer were defined to be 44 to 47 mL after injection of WT-TM2 as a control. The peak of an eluted monomer appeared at around 63 to 66 mL and the peak of an eluted dimer appeared at around 51 to 54 mL, from result of loading the molecular weight markers.

| Molecule | Recovery rate (%) [1] [%] | recovery rates compared with WT [1] | Recover rate (%) ([2]; Biotin-agarose) | Structure (identified by FPLC) [3] | Sephacryl (mL), elution peak position [3] | binding to 2-iminobiotin-agarose [1] | Note (Iminobiotin-agarose) [1] | other results |
| --- | --- | --- | --- | --- | --- | --- | --- | --- |
| B1 | 30 | inferior to WT | 95 | Tetramer | 45.14 mL |  |  | share present as tetramer ([3]; FPLC): 100% |
| B2 | 0 |  | 70 | Tetramer | 45.42 mL | did not bind | To FT |  |
| B3 | 0 |  | 50 |  |  | did not bind | To FT | Structure (identified by FPLC) ([3]; monomer peak): monomer; Structure (identified by FPLC) ([3]; tetramer peak): tetramer,; share present as monomer ([3]; FPLC): about 30%; share present as monomer ([3]; FPLC, listed as A66R): 30%; Sephacryl (mL), elution peak position ([3]; monomer peak): 66.15 mL; Sephacryl (mL), elution peak position ([3]; tetramer peak): 45.50, mL |
| B4 | 10 | inferior to WT | 50 | Tetramer | 46.24 mL |  |  |  |
| B5 | 5 | inferior to WT | 50 | Tetramer | 45.09 mL |  | To FT | recover rate by elution with acetic acid ([2]; Biotin-agarose, elution with acetic acid): recover rate: 95% |
| B6 | 0 |  | 80 |  |  | did not bind | To FT | Structure (identified by FPLC) ([3]; dimer peak): dimer,; share present as monomer ([3]; FPLC): 90%; Sephacryl (mL), elution peak position ([3]; dimer peak): 54.49, mL |
| B7 | 0 |  | 0 |  |  | did not bind | To FT | binding to biotin-agarose [2]: did not bind; Note (Biotin-agarose) [2]: To FT |
| B8 | 5 | inferior to WT | 95 | dimer; also recorded: tetramer, | 44.69 mL and 52.30, mL |  | To FT | share present as dimer ([3]; FPLC): 67%; share present as tetramer ([3]; FPLC): 33% |
| B9 | 0 |  | 30 | Tetramer | 46.49 mL | did not bind | To FT |  |
| B10 | 0 |  | 30 |  |  | did not bind | To FT | Structure (identified by FPLC) ([3]; dimer peak): dimer,; Structure (identified by FPLC) ([3]; monomer peak): monomer; share present as monomer ([3]; FPLC): 64.8%; Sephacryl (mL), elution peak position ([3]; dimer peak): 54.38, mL; Sephacryl (mL), elution peak position ([3]; monomer peak): 67.21 mL |
| B11 | 0 |  | 0 |  |  |  | To FT | binding to biotin-agarose [2]: bound to biotin-agarose; elution from biotin-agarose with an excess amount of biotin [2]: not eluted; Note (Biotin-agarose) [2]: not eluted |
